Data reported in patent publication US20120264231A1, “ASSAY FOR ORAI CALCIUM CHANNEL REGULATORS” (IMMUNE DISEASE INSTITUTE, INC., priority 2009, published 2012).

Molecular target: ORAI1 (Homo sapiens, UniProt Q96D31)
Assay: Fura-2 Ca^2+ flux assay, sec6-4 secretory vesicles with ORAI1
Format: biochemical
Parameters: the ORAI functional fragment is ORAI1 (65-301), ORAI1 (65-87), or full length ORAI1; made in house; host or cells: S. cerevisiae NY17 (sec6-4), isolated secretory vesicles, vector pBEVY-GU
Experimental: It was next asked whether STIM-ORAI protein-protein interaction is sufficient to open the ORAI Ca^2+ channel. Vesicles obtained from S cerevisiae expressing ORAI were incubated under conditions where Fura-2 was the principal Ca^2+ buffer in the extravesicular solution in order to monitor Ca^2+ efflux (Meyer, T., et al., Biochemistry 29, 32-37 (1990)).
Vesicles carrying ORAI 1 were isolated from S cerevisiae strain NY1 7 according to a standard protocol (Coury, L. A., et al., Methods Enzymol 306, 169-186 (1999); Nakamoto, R. K., et al., J Biol Chem 266, 7940-7949 (1991)). Efflux of Ca^2+ elicited by STIM1^CT fragments was detected by suspending the vesicles in a buffer containing Fura-2 as principal Ca^2+ buffer, and monitoring the Fura-2 fluorescence excitation spectrum (Meyer, T., et al., Biochemistry 29, 32-37 (1990)). As a complementary approach, ORAI 1 was coexpressed with a Ca^2+ sensor cameleon D3 cpV or cameleon D4 cpV53 that was targeted to the vesicles, and changes in intravesicular [Ca^2+] were detected as changes in FRET between CFP and YFP of the sensor.
S cerevisiae strain NY17 featuring the temperature-sensitive sec6-4 mutation was used for protein expression and purification of secretory vesicles as described (Nakamoto, R. K., et al., J Biol Chem 266, 7940-7949 (1991); Coury, L. A., et al., Methods Enzymol 306, 169-186 (1999)). Cells were grown to midlog phase at 25° C. in uracil-deficient synthetic complete medium containing glucose, which was subsequently exchanged for galactose to induce transgene expression over a period of 8 hours. The temperature was then switched to 37° C. for 3 hours to force intracellular accumulation of secretory vesicles. Cells were collected by centrifugation at 4,000×g for 5 min at 4° C., washed once in ice-cold water, resuspended at a concentration of 50-60 OD600 units/mL in 10 mM DTT, 100 mM Tris pH 9.4, and shaken gently at room temperature for 10 min. Cells were pelleted and resuspended at 50-60 OD600 units/mL in spheroplast buffer (1.4 M sorbitol, 50 mM K2HPO4 pH 7.5, 10 mM NaN3, 40 mM β-mercaptoethanol) containing Zymolyase 20T (50 units per g of yeast wet weight) and incubated for up to 1 h at 37° C. Spheroplasts were harvested at 3,000×g for 5 min at 4° C., resuspended in spheroplast buffer containing 10 mM MgCl2 and 1 mg/ml Concanavalin A at a density corresponding to 50 OD600 units/mL of the starting culture, and gently shaken at 4° C. for 15 min. […] Myc-tagged ORAI1 was detected in Western blots using the murine anti-Myc monoclonal antibody 9E10. […]

[1] = STIM 1 cytoplasmic fragments 2 μM

Chain of ORAI1 (Q96D31 2-301): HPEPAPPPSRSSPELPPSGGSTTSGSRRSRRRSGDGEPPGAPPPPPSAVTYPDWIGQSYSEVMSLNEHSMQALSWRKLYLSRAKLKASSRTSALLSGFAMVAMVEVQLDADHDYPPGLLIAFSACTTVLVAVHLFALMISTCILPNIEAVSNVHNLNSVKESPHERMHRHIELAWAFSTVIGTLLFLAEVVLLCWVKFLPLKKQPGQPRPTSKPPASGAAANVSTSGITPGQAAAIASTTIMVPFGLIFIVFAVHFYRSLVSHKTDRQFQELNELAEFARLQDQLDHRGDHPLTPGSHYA

“STIM1 (233-463): truncated mouse STIM1 cytoplasmic fragment, residues 233-463, His-tagged recombinant protein” was tested, and the “Ca^2+ efflux from vesicles with ORAI (Fura-2 excitation spectrum)” value (from here on “Ca^2+ efflux from vesicles with ORAI”) [1] was “had little effect”.

With C[C@H](CCC(=O)O)C[C@H](C)C[C@H](C)C(=O)/C=C(\O)[C@H](C)C[C@H](C)C/C=C/[C@@H](C)[C@@H](O)[C@@H](C)[C@@H](O)C[C@@H]1CC[C@@](C)([C@H]2CC[C@@](C)([C@@H](C)O)O2)O1 [ionomycin, reference compound] the “Ca^2+ efflux from vesicles with ORAI” value (ionomycin 20 μM) was “release of Ca^2+ to the extravesicular solution”.

For “STIM1 (233-498): truncated mouse STIM1 cytoplasmic fragment, residues 233-498, His-tagged recombinant protein”, the “Ca^2+ efflux from vesicles with ORAI” value [1] was “elicited efflux of Ca^2+”.

For “STIM1^CT: cytoplasmic region of STIM1, mouse residues 233-685, His-tagged recombinant protein expressed in E coli”, the “Ca^2+ efflux from vesicles with ORAI” value [1] was “elicited efflux of Ca^2+”.
